Reference: US20090240038A1 (Amgen, published 2009)

T1: Pep-3, NH2-LEEKKGNYVVTDHG-OH (human)
T1 construct: MW 1590 Da; free peptide of the Biacore and KinExA experiments
T1 peptide: H-LEEKKGNYVVTDHG-OH


Tests used:
[1] = target: T1, Pep-3, NH2-LEEKKGNYVVTDHG-OH; assay: logarithm of the measured Kd (Biacore, pep-3), listed beside simulated energies
[2] = target: T2, EGFRvIII (type III deletion mutant of the epidermal growth factor receptor), expressed on cells (human, UniProt P00533 298-1210); assay: FACS, NR6 M cells, 0.25 µg/ml mAb + Alexa anti-human IgG Fab, 37 C without glutathione
T2 construct: Also used for lysates of H1477 cells in Western blots; also called delta-EGFr; dEGFR
Method: XenoMax derived IgG1 recombinant antibodies were expressed, purified and quantitated as described previously. Antibodies were further assayed for their ability to internalize the EGFRvIII receptor in NR6 M cells. […] The cells were washed with cold 10% FCS in PBS and secondary antibody (SS Alexa antihuman IgG Fab) at 3 μg/ml Fab was added and incubated for 7 mins on ice. The cells were washed with cold 10% FCS in PBS once and then resuspended in cold media. Next, two sets of the triplicate were incubated at 37° C. and the remaining set was incubated at 4° C. for 1 hr. After that the cells incubated at 4° C. and one set of the cells incubated at 37° C. were treated with glutathione (as previously mentioned) for 1 hr on ice. Then the cells were washed and resuspended in 100 μl of cold 1% FCS in PBS and analyzed by FACS. The % internalization was calculated from the geometric mean obtained from the FACS analysis [(mean at 37° C. with glutathione—mean at 4° C. with glutathione)/(mean at 37° C. without glutathione—mean at 4° C. with glutathione)].

[3] = target: T2, EGFRvIII (type III deletion mutant of …); assay: FACS titration on NR6 cells expressing EGFRvIII, PE fluorescence intensity (geo mean)
[4] = target: T3, EGFRvIII-Rabbit Fc fusion protein (human; rabbit, UniProt P00533 298-645); assay: ELISA, minilipofection supernatant titrated 1:2 on EGFRvIII-Rab Ig Fc fusion protein
T3 construct: whole entry named; also called EGFRvIII-RbFc; EGFRvIII-Rab Ig Fc fusion protein; not shown: Hinge-CH2-CH3 domain of rabbit IgG
Method: The secretion ELISA tests were performed as follows. […] The plates were washed five times with dH₂O. Recombinant antibodies were titrated 1:2 for 7 wells from the undiluted minilipofection supernatant. The plates were washed five times with dH₂O. A goat anti-human IgG Fc-specific HRP-conjugated antibody was added at a final concentration of 1 μg/mL for 1 hour at RT for the secretion plates and binding plates detected with 1 μg/ml Rb anti Hu Fc for 1 hour at room temperature. The plates were washed five times with dH₂O. The plates were developed with the addition of TMB for 30 minutes and the ELISA was stopped by the addition of 1 M phosphoric acid. Each ELISA plate was analyzed to determine the optical density of each well at 450 nm.

[5] = target: T1, Pep-3, NH2-LEEKKGNYVVTDHG-OH; assay: pep3 KinExA
Method: All KinExA experiments were conducted at room temperature (˜23° C.). For all equilibrium experiments, antigen was serially diluted into solutions having a constant mAb binding site concentration. For the first 10 titration points the dilutions were 2-fold and the 11th and 12th serial dilutions were 10-fold. The sample flow rate for all experiments was 0.25 mL/min and the labeling antibody flow rate was 0.5 mL/min. […] A sample volume of 250 μL was analyzed for the antibody-controlled experiment. Two or three replicates of each sample were measured for all equilibrium experiments. The equilibrium titration data were fit in a dual curve analysis to a 1:1 binding model using KinExA software (Version 2.4, Sapidyne Instruments).

| Binder | Ln(Kd) [1] | FACS geometric mean [2] | also measured |
| --- | --- | --- | --- |
| antibody 13.1.2 (antibody, human IgG1, V domains shown, Hybridoma derived fully human IgG1 kappa) VH: QVQLVESGGGVVQPGRSLRLSCAASGFTFSSYGMHWVRQAPGKGLEWVAVIWYDGSNKYYVDSVKGRFTISRDNSKNTLYLQMNSLRAEDTAVYYCARDGWQQLAPFDYWGQGTLVTVSS VL: not shown | -16.3 | 22.1 |  |
| 13.1.2 variant L99N-4.1 (antibody, V domains shown, also called Leu99Asn; 99Asn) VH: QVQLVESGGGVVQPGRSLRLSCAASGFTFSSYGMHWVRQAPGKGLEWVAVIWYDGSNKYYVDSVKGRFTISRDNSKNTLYLQMNSLRAEDTAVYYCARDGWQQLAPFDYWGQGTLVTVSS VL: not shown | -13.5 |  |  |
| 13.1.2 variant L99H-9.2 (antibody, V domains shown, also called Leu99His; 99His) VH: QVQLVESGGGVVQPGRSLRLSCAASGFTFSSYGMHWVRQAPGKGLEWVAVIWYDGSNKYYVDSVKGRFTISRDNSKNTLYLQMNSLRAEDTAVYYCARDGWQQLAPFDYWGQGTLVTVSS VL: not shown | -14.7 |  |  |
| 13.1.2 variant Y172R-1.2 (antibody, V domains shown, Position 172 of the joint numbering = residue 59 of the heavy chain variable region; also called Tyr172Arg; 172Arg) VH: QVQLVESGGGVVQPGRSLRLSCAASGFTFSSYGMHWVRQAPGKGLEWVAVIWYDGSNKRYVDSVKGRFTISRDNSKNTLYLQMNSLRAEDTAVYYCARDGWQQLAPFDYWGQGTLVTVSS VL: not shown | -13.9 |  |  |
| 13.1.2 variant L99T-5.3 (antibody, V domains shown, also called Leu99Thr; leu99Thr) VH: QVQLVESGGGVVQPGRSLRLSCAASGFTFSSYGMHWVRQAPGKGLEWVAVIWYDGSNKYYVDSVKGRFTISRDNSKNTLYLQMNSLRAEDTAVYYCARDGWQQLAPFDYWGQGTLVTVSS VL: not shown | -16.5 |  |  |
| 13.1.2 variant N35G-3.1 (antibody, V domains shown, also called Asn35Gly; 35Gly) VH: QVQLVESGGGVVQPGRSLRLSCAASGFTFSSYGMHWVRQAPGKGLEWVAVIWYDGSNKYYVDSVKGRFTISRDNSKNTLYLQMNSLRAEDTAVYYCARDGWQQLAPFDYWGQGTLVTVSS VL: DIVMTQTPLSSPVTLGQPASISCRSSQSLVHSDGGTYLSWLHQRPGQPPRLLIYKISNRFSGVPDRFSGSGAGTAFTLKISRVEAEDVGVYYCMQATQLPRTFGQGTKVEIKR | -15.4 |  |  |
| 13.1.2 variant L217N-2.1 (antibody, V domains shown, Position 217 of the joint numbering = residue 104 of the heavy chain variable region (heavy chain starts at 114); also called Leu217Asn; 217Asn) VH: QVQLVESGGGVVQPGRSLRLSCAASGFTFSSYGMHWVRQAPGKGLEWVAVIWYDGSNKYYVDSVKGRFTISRDNSKNTLYLQMNSLRAEDTAVYYCARDGWQQNAPFDYWGQGTLVTVSS VL: not shown | -15.5 |  |  |
| 13.1.2 variant L217Q-10.1 (antibody, V domains shown, Position 217 of the joint numbering = residue 104 of the heavy chain variable region; also called Leu217Gln; 217Gln) VH: QVQLVESGGGVVQPGRSLRLSCAASGFTFSSYGMHWVRQAPGKGLEWVAVIWYDGSNKYYVDSVKGRFTISRDNSKNTLYLQMNSLRAEDTAVYYCARDGWQQQAPFDYWGQGTLVTVSS VL: not shown | -16.2 |  |  |
| antibody 139 (antibody, human IgG1, V domains shown, Recombinant human IgG1 kappa; also called SC139) VH: EVQVLESGGGLVQPGGSLRLSCAASGFTFSSYAMSWVRQAPGKGLEWVSAISGSGGSTNYADSVKGRFTISRDNSKNTLYLQMNSLRAEDTAVYYCAGSSGWSEYWGQGTLVTVSS VL: DIQMTQSPSSLSASVGDRVTITCRASQGIRNNLAWYQQKPGKAPKRLIYAASNLQSGVPSRFTGSGSGTEFTLIVSSLQPEDFATYYCLQHHSYPLTSGGGTKVEIK |  | 22.6 |  |
| antibody 250 (antibody, human IgG1, V domains shown, Recombinant human IgG1 kappa; also called SC250; sc250) VH: EGQLLESGGGWVQPGESLRLSCAASGFTFSSYAMSWVRQAPGKGLEWVSAISGSGGSTNYADSVKGRFTISRDNSKNTLYLQVNSLRVEDTAVYYCAGSSGWSEYWGQGTLVTVSS VL: DIQMTQSPSSLSASVGDSVTITCRTSQGIRKNLGWYQQKPGKAPKRLIYAASSLQSGVPSRFSGSGSGTEFTLTISRLQPEDFATYYCLQHHSYPLTFGGGTRVEIR |  | 24.1 |  |
| antibody 211 (antibody, human IgG1, V domains shown, Recombinant human IgG1 kappa; also called SC211; sc211) VH: QVQLVESGGGVVQPGRSLRLSCVASGFTLSSYGMHWVRQAPGKGLEWVAVTSYDGSKKDYADSAKGRFTISRDNSKNTLYLQMNSLRAEDTAVYYCVSEGYCSSSSCYKYYYYGMDVWGQGTTVTVSS VL: DIVMTQSPLSLPVTPGEPASISCRSSQSLLYRNGNNYLDWYLQRPGQSPQLLIYLGSNRASGVPDRFSGSGSGTDFTLKISRVEAEDVGVYYCMQALQTPRTFGQGTKVEIK |  | 20.8 |  |
| antibody 095 (antibody, human IgG1, V domains shown, Recombinant human IgG1 kappa; also called mAb 095; SC95) VH: QVQLQESGPFLVKPSQTLSLTCTVSGGSISSGGYYWSWIRQHPGKGLEWIGFIYYRGNTYYNPSLKSRVTISVDTSKNQFSLKLSSVTAADTAVYYCARDGYCSRTGCYGGWFDPWGQGTLVTVSP VL: DIVMTQTPLSSPVTLGQPASISCRSSQSLIHTDGNIYLSWLQQRPGQPPRLLIYKISNRFSGVPDRFSGSGAGTDFTLKISRVEAEDVGVYYCMQGTQFPITFGQGTRLEIK |  | 22.6 |  |
| antibody 131 (antibody, human IgG1, V domains shown, XenoMax derived; variable regions cloned into human IgG1 and IgK expression vectors; also called SC131) VH: QVQLVESGGGVVQSGRSLRLSCAASGFTFRNYGMHWVRQAPGKGLEWVAVIWYDGSDKYYADSVRGRFTISRDNSKNTLYLQMNSLRAEDTAVYYCARDGYDILTGNPRDFDYWGQGTLVTVSS VL: DTVMTQTPLSSHVTLGQPASISCRSSQSLVHSDGNTYLSWLQQRPGQPPRLLIYRISRRFSGVPDRFSGSGAGTDFTLEISRVEAEDVGVYYCMQSTHVPRTFGQGTKVEIK |  |  | EC50 (read off the curve) [3]: ~0.1 µg/mL; titer (antigen binding) [4]: > 64 reciprocal dilution; Kd [5]: 0.05 pM |
